Measured values taken from paper PMC8699718, “A structurally conserved site in AUP1 binds the E2 enzyme UBE2G2 and is essential for ER-associated degradation” (PLoS Biology, 2021).
Ends that are not written are not given here.

System: RI332 (truncated Ribophorin I)
Assay: CHX chase: RI332 degradation in HT1080 AUP1 KO cells
Format: cell-based, human
Conditions: GFP-G2BR^AUP1 co-expressed with TM-UBE2G2, HT1080 AUP1 KO
Excerpt: Fig 2 The G2BR of AUP1 is required for ERAD of mutant ribophorin and GFP^u. (A) HT1080 or HRD1 KO cells were transfected with plasmid encoding RI332-MYC and with plasmid encoding HRD1 as indicated. Cells were subject to CHX chase and RI332-MYC degradation monitored by western blot. GFP serves as a transfection efficiency control. (B) HT1080 or AUP1 KO cells were transfected with plasmid encoding RI332-MYC and AUP1-FLAG WT or deletion mutants assessed for RI332 degradation. Lower band (*) in MYC blot is nonspecific. (C, D) HEK293 or AUP1 KO cells were assessed for RI332 turnover as in (B). (E) HT1080 or AUP1 KO cells were transfected with GFP^u plasmid, and its degradation assessed by emetine chase, which has previously been used to assess GFP^u turnover. […] (F) HT1080 AUP1 KO cells were transfected with GFP^u and the indicated AUP1-FLAG WT or deletion mutants, and GFP^u degradation assessed as in (E). […]
Fig 8 Recruitment of UBE2G2 to the ER membrane and activation by G2BR^AUP1 is required for ERAD. (A) HT1080 or AUP1 KO cells were transfected with NHK-HA and either empty vector or MYC-UBE2G2 and NHK turnover assessed by CHX chase. (B) AUP1 KO cells were transfected with NHK-HA and GFP fusions of either a scrambled G2BR sequence (SCR) or G2BR^AUP1 and NHK turnover and levels of endogenous UBE2G2 assessed. […] (G) U-2 OS cells were transfected as in (F), and localization assessed by SIM. […]

Substance: GFP-G2BR^AUP1: GFP fusion of AUP1 aa 378 to 404 (SSWARQESLQERKQALYEYARRRFTER; also: GFP fusion; UniProt Q9Y679 378-404, looked up, fragment)
- RI332 degradation, soluble G2BR with TM-UBE2G2: restored degradation of RI332
